# B1: CIB2-V5 (calcium and integrin-binding protein 2, V5 tagged, wild type) [human] / TMC1-EGFP (EGFP tagged human full length TMC1) [human] (parent complex)
# chain 1: MGNKQTIFTEEQLDNYQDCTFFNKKDILKLHSRFYELAPNLVPMDYRKSPIVHVPMSLIIQMPELRENPFKERIVAAFSEDGEGNLTFNDFVDMFSVLCESAPRELKANYAFKIYDFNTDNFICKEDLELTLARLTKSELDEEEVVLVCDKVIEEADLDGDGKLGFADFEDMIAKAPDFLSTFHIRI
# chain 2: MSPKKVQIKVEEKEDETEESSSEEEEEVEDKLPRRESLRPKRKRTRDVINEDDPEPEPEDEETRKAREKERRRRLKRGAEEEEIDEEELERLKAELDEKRQIIATVKCKPWKMEKKIEVLKEAKKFVSENEGALGKGKGKRWFAFKMMMAKKWAKFLRDFENFKAACVPWENKIKAIESQFGSSVASYFLFLRWMYGVNMVLFILTFSLIMLPEYLWGLPYGSLPRKTVPRAEEASAANFGVLYDFNGLAQYSVLFYGYYDNKRTIGWMNFRLPLSYFLVGIMCIGYSFLVVLKAMTKNIGDDGGGDDNTFNFSWKVFTSWDYLIGNPETADNKFNSITMNFKEAITEEKAAQVEENVHLIRFLRFLANFFVFLTLGGSGYLIFWAVKRSQEFAQQDPDTLGWWEKNEMNMVMSLLGMFCPTLFDLFAELEDYHPLIALKWLLGRIFALLLGNLYVFILALMDEINNKIEEEKLVKANITLWEANMIKAYNASFSENSTGPPFFVHPADVPRGPCWETMVGQEFVRLTVSDVLTTYVTILIGDFLRACFVRFCNYCWCWDLEYGYPSYTEFDISGNVLALIFNQGMIWMGSFFAPSLPGINILRLHTSMYFQCWAVMCCNVPEARVFKASRSNNFYLGMLLLILFLSTMPVLYMIVSLPPSFDCGPFSGKNRMFEVIGETLEHDFPSWMAKILRQLSNPGLVIAVILVMVLAIYYLNATAKGQKAANLDLKKKMKMQALENKMRNKKMAAARAAAAAGRQ
# Variants of: B1
# Assay: FRET; cells co-expressing EGFP tagged human TMC1 (donor) and V5 tagged human CIB2; parent: 22; read off a plot
row,Variant,response
1,chain 1 MGNKQTIFTEEQLDNYQDCTFFNKKDILKLHSRFYELAPNLVPMDYRKSPIVHVPMSLIIQMPELRENPFKERIVAAFSEDGEGNLTFNDFVDMFSVLCESAPRELKANYAFKIYDFNTDNFTCKEDLELTLARLTKSELDEEEVVLVCDKVIEEADLDGDGKLGFADFEDMIAKAPDFLSTFHIRI [chain 1 I123T],~18%
2,chain 1 MGNKQTIFTEEQLDNYQDCTFFNKKDILKLHSRFYELAPNLVPMDYRKSPIVHVPMSLIIQMPELRENPFKERIVAAFSEDGEGNLTFNDSVDMFSVLCESAPRELKANYAFKIYDFNTDNFICKEDLELTLARLTKSELDEEEVVLVCDKVIEEADLDGDGKLGFADFEDMIAKAPDFLSTFHIRI [chain 1 F91S],~3%
3,chain 1 MGNKQTIFTEEQLDNYQDCTFFNKKDILKLHSRFYELAPNLVPMDYRKSPIVHVPMSLIIQMPELRENPFKERIVAAFSEDGEGNLTFNDFVDMFSVLWESAPRELKANYAFKIYDFNTDNFICKEDLELTLARLTKSELDEEEVVLVCDKVIEEADLDGDGKLGFADFEDMIAKAPDFLSTFHIRI [chain 1 C99W],~5%
4,chain 1 MGNKQTIFTEEQLDNYQDCTFFNKKDILKLHSRFYELAPNLVPMDYRKSPIVHVPMSLIIQMPDLRENPFKERIVAAFSEDGEGNLTFNDFVDMFSVLCESAPRELKANYAFKIYDFNTDNFICKEDLELTLARLTKSELDEEEVVLVCDKVIEEADLDGDGKLGFADFEDMIAKAPDFLSTFHIRI [chain 1 E64D],~6.5%

# The next lines start with the values.
row,response,Variant
1,~19%,chain 1 MGNKQTIFTEEQLDNYQDCTFFNKKDILKLHSRFYELAPNLVPMDYRKSPIVHVPMSLIIQMPELWENPFKERIVAAFSEDGEGNLTFNDFVDMFSVLCESAPRELKANYAFKIYDFNTDNFICKEDLELTLARLTKSELDEEEVVLVCDKVIEEADLDGDGKLGFADFEDMIAKAPDFLSTFHIRI [chain 1 R66W]
2,~19%,chain 1 MGNKQTIFTEEQLDNYQDCTFFNKKDILKLHSRFYELAPNLVPMDYRKSPIVHVPMSLIIQMPELRENPFKERIVAAFSEDGEGNLTFNDFVDMFSVLCESAPRELKANYAFKIYDFNTDNFICKEDLELTLARLTKSELDEEEVVLVCDKVIEEADLDGDGKLGFADFEDMIAKAPDFLSTFHIWI [chain 1 R186W]

# — PMC5491523 (2017)
